Assay results: patent US20180127504A1 (ACADEMIA SINICA, published 2018)
Substitutions are numbered along the chain they refer to.

T1: VEGFR2(M2) (human, UniProt P35968 20-813)
T1 construct: Expressed on 293T cells; single substitutions derived from the printed replacement of the seven-residue stretch
T1 chain: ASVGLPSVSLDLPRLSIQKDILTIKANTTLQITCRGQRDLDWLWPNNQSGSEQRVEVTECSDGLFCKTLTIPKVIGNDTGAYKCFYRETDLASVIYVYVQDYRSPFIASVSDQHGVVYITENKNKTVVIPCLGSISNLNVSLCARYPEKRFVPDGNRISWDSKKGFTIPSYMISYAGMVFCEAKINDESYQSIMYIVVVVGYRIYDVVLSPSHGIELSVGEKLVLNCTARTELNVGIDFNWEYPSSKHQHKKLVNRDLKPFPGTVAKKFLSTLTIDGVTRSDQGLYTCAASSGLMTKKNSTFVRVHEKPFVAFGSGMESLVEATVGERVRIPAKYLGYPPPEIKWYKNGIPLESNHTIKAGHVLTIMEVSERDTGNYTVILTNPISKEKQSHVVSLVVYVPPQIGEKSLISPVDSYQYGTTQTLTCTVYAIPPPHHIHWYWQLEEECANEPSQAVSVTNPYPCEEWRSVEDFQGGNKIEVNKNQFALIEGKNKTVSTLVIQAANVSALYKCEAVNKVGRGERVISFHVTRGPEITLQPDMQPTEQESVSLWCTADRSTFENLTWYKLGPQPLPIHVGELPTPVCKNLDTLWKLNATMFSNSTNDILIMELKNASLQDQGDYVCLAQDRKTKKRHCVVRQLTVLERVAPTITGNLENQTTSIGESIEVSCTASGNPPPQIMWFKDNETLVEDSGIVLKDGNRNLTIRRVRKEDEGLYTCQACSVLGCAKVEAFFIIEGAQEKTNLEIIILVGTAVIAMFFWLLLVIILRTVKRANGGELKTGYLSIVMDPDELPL

T2: VEGFR2(M1) (human, UniProt P35968 20-813)
T2 construct: Expressed on 293T cells; single substitutions derived from the printed replacement of the six-residue stretch; also called VEGFR2-M1 mutant protein
T2 chain: T1 chain with N240T, E242H, Y243S, S245P, P260T, F261Q, P262S, T264S, V265E, A266M

B1: R2S8 (scFv, V domains shown)
VH: QVQLVQSGGGLVKPGGSLRLSCAASGFTFSSYSMSWVRQAPGKGLEWVSSISSSSSYIYYADSVKGRFTISRDNAKNSLYLQMNSLRAEDTAVYYCARSTDAFDIWGQGTMVTVSS
VL: DIVMTQSPSSLSASVGDRVTITCRASQRISNYLNWYQHKSGEDPKLLIYAASSLQSGVPSRFSGSGSGTDFTLTISSLQPEDFATYYCQQYDRYPPTFGQGTKLEIK
notes: also called soluble anti-VEGFR2 scFv from phage clone R2PC8
B2: R2PC8 (scFv, V domains shown)
VH: B1 VH
VL: B1 VL
notes: also called anti-VEGFR2 scFv phage clone 8
B3: R2S28 (scFv, V domains shown)
VH: EVQLVESGGALVQPGGSLRLSCVGSEFTFSHYNLHWVRQAPGKGLEWLAVISDDGRNKYYGDSVKGRFTISRDNSKNTLYLQMNGLRAEDTAVYYCARVPTVWRGGVYDIWGQGTMVTVSS
VL: EIVLTQSPATLSLSPGERATLSCRASQSVGSYLAWYQQRPGQPPRLLIYDASNRATGVAARFSGSGSGTDFTLTIDSLEAEDAATYYCHQSSSLPRTFGQGTKLEIK
notes: also called soluble anti-VEGFR2 scFv from phage clone R2PC28
B4: R2PC28 (scFv, V domains shown)
VH: B3 VH
VL: B3 VL
notes: also called anti-VEGFR2 scFv phage clone 28
B5: R2S12 (scFv, V domains shown)
VH: QVNLRESGGGLVKPGGSLRLSCAASGFTFGSYTMNWVRQAPGKGLEWVASITSGSSYIFYTDSVKGRFTISRDNSRSSLFLQMNSLRAEDTAIYYCARGSASAFDIWGQGTMVTVSS
VL: DIQMTQSPSSLSASVGDRVTITCKASDDIINYLNWYQQKPGEAPKLLIYDASILETGVPSRFSGSGSGTDFTFTISSLQPEDIATYYCQQYDILPLTFGGGTKLEIK
notes: Soluble scFv made in E. coli HB2151 from phage clone R2PC12, with E tag; also called soluble anti-VEGFR2 scFv from phage clone R2PC12
B6: R2PC12 (scFv, V domains shown)
VH: B5 VH
VL: B5 VL
notes: also called anti-VEGFR2 scFv phage clone 12
B7: R2S29 (scFv, V domains shown)
VH: QVQLQQSGAEMKKSGSSVKVSCKASGGNFISKGISWVRQAPGQGLEWMGGIIPLFGTGNYAQKFQGRVTITADESTTTVYLQLTSLTPEDTAMYFCATADVDYSDSLEAFDMWGQGTMVTVSS
VL: DIVMTQSPSSLSASVGDRVTITCRASQSINNYLNWYQQKPGKAPNLLIYGASSLQSGVPSRFRGSGSGTDFTLTISSLQPEDFATYYCQQSYSTPLFGQGTKLEIK
notes: also called soluble anti-VEGFR2 scFv from phage clone R2PC29
B8: R2PC29 (scFv, V domains shown)
VH: B7 VH
VL: B7 VL
notes: also called anti-VEGFR2 scFv phage clone 29

How the values were obtained:
[1] = molecular target: T3, VEGFR2 on tumor vascular endothelium (frozen sections of human lung cancer specimens) (human, UniProt P35968); assay: immunofluorescence on frozen sections of human lung cancer, scFv detected by anti-E tag and rhodamine secondary antibody, CD31 co-staining
T3 construct: endogenous, on CD31-positive tumor vascular endothelium in frozen tissue sections; also called human tumor vasculature

VEGFR2(1-7) = molecular target: T4, VEGFR2(1-7) (human, UniProt P35968 20-813); assay: immunofluorescent staining of transfected 293T cells
T4 construct: Expressed on 293T cells; also called full-length extracellular region of VEGFR2, domains 1-7, Met1 to Leu813

VEGFR2(M2) = molecular target: T1, VEGFR2(M2); assay: as above
VEGFR2(4-7) = molecular target: T5, VEGFR2(4-7) (human, UniProt P35968 321-813); assay: as above
T5 construct: also called domains 4-7, Phe321 to Leu813

VEGFR2(del3) = molecular target: T6, VEGFR2(del3) (human, UniProt P35968 20-813); assay: as above
T6 construct: Expressed on 293T cells; also called VEGFR2 with domain 3 deleted

VEGFR2(del2-3) = molecular target: T7, VEGFR2(del2-3) (human, UniProt P35968 20-813); assay: as above
T7 construct: Expressed on 293T cells; also called VEGFR2 with domains 2 and 3 deleted

VEGFR2(M1) = molecular target: T2, VEGFR2(M1); assay: as above
VEGFR2(2-7) = molecular target: T8, VEGFR2(2-7) (human, UniProt P35968 111-813); assay: as above
T8 construct: also called domains 2-7, Ala111 to Leu813

c-Met-Fc control protein = molecular target: T9, c-Met-Fc control protein (UniProt P08581 25-932, limits assumed); assay: phage ELISA on coated MET-Fc, anti-M13-HRP detection
T9 construct: Bought control protein; also called Met-Fc (R&D); c-Met-Fe; not shown: Fc part of the bought fusion protein; not described
Protocol: The selected phages were further examined by ELISA screening. The 96-well plates were coated with […] of VEGFR2-Fc, Met-Fc (R&D), or BSA (Sigma) protein in 0.1 M sodium bicarbonate overnight at 4° C. After blocking with 1% BSA in PBS (w/v) for 2 hr at room temperature, 70-randomly selected phage clones were added to the plates at a 1:2 dilution in 1% BSA, and incubated for 1 hr at room temperature. Following washes with PBST, the plates were incubated with a 1:2000 dilution of horseradish peroxidase (HRP)-conjugated mouse anti-M13 phage antibody (GE) for 1 hr. After washing with PBST, the colorimetric reaction was developed with the peroxidase substrate ortho-phenylenediamine (OPD; Sigma) plus H₂O₂ for 15 min, and then terminated by the addition of 3 N HCl. The absorbance at 490 nm was determined using a microplate reader (SpectraMax, Molecular Devices). Plasmid DNA of positive clones were isolated and sequenced using the pCANTAB5 sequencing primer set.
(§1) After four rounds of affinity selection (biopanning), the titer of bound phage increased by as much as 3,455-fold (FIG. 1A).

[2] = molecular target: T10, VEGFR2 on the cell surface of human umbilical vein endothelial cells (HUVEC) (human, UniProt P35968 20-1356); assay: flow cytometry on HUVECs, 1x10^10 cfu phage, anti-M13 and PE-labelled secondary antibody
T10 construct: Endogenous receptor of human cells; also called cell-surface VEGFR2; cellular VEGFR2
Protocol: About 1×10⁴ HUVEC were incubated with the selected anti-VEGFR2 phage clones at 4° C. for 1 hour in FACS buffer (PBS containing 1% fetal bovine serum). After the cells were washed with FACS buffer, they were first incubated with mouse anti-M13 phage Ab for 1 hr at 4° C., and then with R-phycoerythrin-conjugated goat anti-mouse IgG (Jackson Immuno Research) for 30 min at 4° C. Flow cytometry was performed with a FACSCantoII (BD), and emission fluorescence intensity was measured with FACS Diva software (BD) to quantitatively compare binding affinities.
as §1

T9 sequence (P08581 25-932 limits assumed): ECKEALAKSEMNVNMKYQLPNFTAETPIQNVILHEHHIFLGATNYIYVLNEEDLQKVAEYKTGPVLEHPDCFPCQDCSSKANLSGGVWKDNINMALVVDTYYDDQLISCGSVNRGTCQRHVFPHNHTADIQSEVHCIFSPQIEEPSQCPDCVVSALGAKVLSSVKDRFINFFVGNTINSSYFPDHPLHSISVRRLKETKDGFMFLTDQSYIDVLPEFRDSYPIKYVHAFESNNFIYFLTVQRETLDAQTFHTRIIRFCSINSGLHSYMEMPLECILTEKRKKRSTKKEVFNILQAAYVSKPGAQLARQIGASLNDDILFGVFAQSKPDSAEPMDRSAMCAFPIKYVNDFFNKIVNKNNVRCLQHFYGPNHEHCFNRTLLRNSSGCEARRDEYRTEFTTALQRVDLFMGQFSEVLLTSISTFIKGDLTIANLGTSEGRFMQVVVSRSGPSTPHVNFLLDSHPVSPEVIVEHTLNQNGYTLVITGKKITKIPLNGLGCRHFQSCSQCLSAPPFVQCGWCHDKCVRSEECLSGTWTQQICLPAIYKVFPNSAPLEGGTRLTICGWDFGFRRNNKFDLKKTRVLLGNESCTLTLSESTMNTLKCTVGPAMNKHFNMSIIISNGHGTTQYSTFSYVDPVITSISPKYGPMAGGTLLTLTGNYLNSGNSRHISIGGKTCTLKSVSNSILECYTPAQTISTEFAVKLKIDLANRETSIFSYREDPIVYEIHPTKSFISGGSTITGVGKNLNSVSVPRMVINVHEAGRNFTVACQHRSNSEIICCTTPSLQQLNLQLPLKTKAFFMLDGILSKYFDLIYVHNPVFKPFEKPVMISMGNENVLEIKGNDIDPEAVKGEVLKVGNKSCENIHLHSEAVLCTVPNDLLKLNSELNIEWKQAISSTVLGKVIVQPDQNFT

Binder	binding result [1]	binding result (VEGFR2(1-7))	binding result (VEGFR2(M2))	binding result (VEGFR2(4-7))	binding result (VEGFR2(del3))	binding result (VEGFR2(del2-3))	binding result (VEGFR2(M1))	binding result (VEGFR2(2-7))	binding result (c-Met-Fc control protein)	binding result [2]
B1	binds	binds	binds	no binding	no binding	no binding	no binding	binds		
B2									no binding (tested: 1x10^9 cfu)	binds
B3	binds	binds	binds	no binding	binds	binds	binds	no binding		
B4									no binding (tested: 1x10^9 cfu)	binds
B5	binds	binds	binds	no binding	no binding	no binding	no binding	binds		
B6									no binding (tested: 1x10^9 cfu)	binds
B7	binds									
B8									no binding (tested: 1x10^9 cfu)	binds
